Assay results reported in the supplement of paper PMC9732359.
± gives the uncertainty stated by the source.

Assay: protein stability index of a GFP-peptide fusion (yeast GPS) (PSI 1-4); higher = more stable; sorted into four equal gates, so the index is relative within each strain
Outline: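 Mid-log yeast cultures in leucine-free medium, carrying a pooled plasmid library, were sorted into four equal gates by their GFP/Cherry fluorescence ratio. Each plasmid expressed Cherry along with GFP fused upstream of a tiled 17-residue yeast protein peptide. Plasmids recovered from each gate were PCR-amplified and Illumina-sequenced, with reads assigned to strains by barcodes. The protein stability index was obtained by summing each gate's read frequency weighted by its gate number.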

Sequence: REGSSARTIKATLPYIK [RPB2]
- protein stability index (doa10∆): 2.42 ± 0.067
- protein stability index (pdr5∆): 3.17 ± 0.077
- protein stability index (san1∆): 2.85 ± 0.061
- protein stability index (ubr1∆): 2.69 ± 0.059

Sequence: ANQSATSTPPPPPAPHN [SNF5]
- protein stability index (doa10∆): 2.98 ± 0.041
- protein stability index (pdr5∆): 3.03 ± 0.034
- protein stability index (san1∆): 2.82 ± 0.034
- protein stability index (ubr1∆): 3.1 ± 0.032

Sequence: KVTQMTPAPKISYKKGA [RPL36B]
- protein stability index (doa10∆): 3.12 ± 0.13
- protein stability index (pdr5∆): 3.27 ± 0.11
- protein stability index (san1∆): 3.31 ± 0.061
- protein stability index (ubr1∆): 3.21 ± 0.1

Sequence: FNEKFPSLIQEEEEDTT [NUT1]
- protein stability index (doa10∆): 2.78 ± 0.086
- protein stability index (pdr5∆): 3.15 ± 0.093
- protein stability index (san1∆): 3.06 ± 0.074
- protein stability index (ubr1∆): 3.06 ± 0.078

Sequence: VKAILMQRHVKVDGKVR [RPS4A]
- protein stability index (doa10∆): 3.13 ± 0.15
- protein stability index (pdr5∆): 3.09 ± 0.11
- protein stability index (san1∆): 3.55 ± 0.2
- protein stability index (ubr1∆): 2.9 ± 0.086

Sequence: QAHEIVIPSYSKWFNLE [SWI3]
- protein stability index (doa10∆): 1.84 ± 0.052
- protein stability index (pdr5∆): 1.82 ± 0.051
- protein stability index (san1∆): 1.81 ± 0.071
- protein stability index (ubr1∆): 1.66 ± 0.038

Sequence: FNFFEPIKEAKIKHGSV [YMR129W/POM152]
- protein stability index (doa10∆): 2.7 ± 0.054
- protein stability index (pdr5∆): 2.89 ± 0.056
- protein stability index (san1∆): 2.54 ± 0.065
- protein stability index (ubr1∆): 2.83 ± 0.046

Sequence: KADAQREKALNEEAEAR [RPL19A]
- protein stability index (doa10∆): 3.22 ± 0.083
- protein stability index (pdr5∆): 3.45 ± 0.2
- protein stability index (san1∆): 3.23 ± 0.081
- protein stability index (ubr1∆): 3.33 ± 0.098

Sequence: HLLPAFLKVKGLVKQHL [RET1]
- protein stability index (doa10∆): 3.2 ± 0.22
- protein stability index (pdr5∆): 3.8 ± 0.2

Sequence: IEDDGIIESHLIQLQNI [CSN9]
- protein stability index (doa10∆): 2.77 ± 0.1
- protein stability index (pdr5∆): 3.17 ± 0.099
- protein stability index (san1∆): 2.97 ± 0.075
- protein stability index (ubr1∆): 2.76 ± 0.073

Sequence: EENSQGNILDFNLNLPP [REC8]
- protein stability index (doa10∆): 3.06 ± 0.11
- protein stability index (pdr5∆): 3.5 ± 0.14
- protein stability index (san1∆): 3.18 ± 0.051
- protein stability index (ubr1∆): 3.01 ± 0.079

Sequence: CEIHPSMILGVAASIIP [RPB2]
- protein stability index (doa10∆): 1.35 ± 0.11
- protein stability index (pdr5∆): 1.42 ± 0.1
- protein stability index (san1∆): 1.14 ± 0.15
- protein stability index (ubr1∆): 1.35 ± 0.16

Sequence: QRSRRKFSERRKALPKE [DSN1]
- protein stability index (doa10∆): 3.47 ± 0.22
- protein stability index (san1∆): 3.52 ± 0.099

Sequence: GLRVRGQHTKTTGRRRA [RPS18A]
- protein stability index (doa10∆): 2.09 ± 0.052
- protein stability index (pdr5∆): 2.33 ± 0.066
- protein stability index (san1∆): 2.21 ± 0.068
- protein stability index (ubr1∆): 2.54 ± 0.037

Sequence: NSNSNQQSTDADEDDED [RPT1]
- protein stability index (doa10∆): 2.32 ± 0.095
- protein stability index (pdr5∆): 2.34 ± 0.093
- protein stability index (san1∆): 2.46 ± 0.091
- protein stability index (ubr1∆): 2.37 ± 0.061

Sequence: DAKTSYPNEVLKFNHGN [REC8]
- protein stability index (doa10∆): 2.78 ± 0.052
- protein stability index (pdr5∆): 2.95 ± 0.072
- protein stability index (san1∆): 3.02 ± 0.058
- protein stability index (ubr1∆): 2.95 ± 0.065

Sequence: RNILHNTVPQVTNFNST [SRB5]
- protein stability index (doa10∆): 1.95 ± 0.056
- protein stability index (pdr5∆): 2.87 ± 0.05
- protein stability index (san1∆): 1.92 ± 0.052
- protein stability index (ubr1∆): 2.44 ± 0.035

Sequence: TDYLYRRLHDENLMVQR [YCS4]
- protein stability index (doa10∆): 2.44 ± 0.089
- protein stability index (pdr5∆): 2.08 ± 0.063
- protein stability index (san1∆): 2.45 ± 0.067
- protein stability index (ubr1∆): 2.38 ± 0.076

Sequence: SPEGRLFQVEYSLEAIK [PUP2]
- protein stability index (doa10∆): 2.37 ± 0.19
- protein stability index (pdr5∆): 2.86 ± 0.1
- protein stability index (san1∆): 2.75 ± 0.12
- protein stability index (ubr1∆): 2.62 ± 0.067

Sequence: KKSKIQLLDIAEFKKEN [LIN1]
- protein stability index (doa10∆): 1.42 ± 0.1
- protein stability index (pdr5∆): 2.29 ± 0.13
- protein stability index (san1∆): 2.44 ± 0.16
- protein stability index (ubr1∆): 2.99 ± 0.11

Sequence: SSLLYTYDENDDFFKEL [ESC2]
- protein stability index (doa10∆): 2.52 ± 0.13
- protein stability index (pdr5∆): 2.8 ± 0.17
- protein stability index (san1∆): 2.62 ± 0.15
- protein stability index (ubr1∆): 2.87 ± 0.094

Sequence: KNYTTETDNEMNGNGKP [SIR3]
- protein stability index (doa10∆): 3.24 ± 0.078
- protein stability index (pdr5∆): 3.37 ± 0.054
- protein stability index (san1∆): 3.48 ± 0.043
- protein stability index (ubr1∆): 3.22 ± 0.055

Sequence: IPPPMPKNQQYRAFGSI [MED7]
- protein stability index (doa10∆): 2.04 ± 0.083
- protein stability index (pdr5∆): 2.31 ± 0.093
- protein stability index (san1∆): 2.42 ± 0.1
- protein stability index (ubr1∆): 2.04 ± 0.071

Sequence: MAKTLKDLDGWQVIITD [SIR3]
- protein stability index (doa10∆): 1.65 ± 0.16
- protein stability index (pdr5∆): 2.4 ± 0.12
- protein stability index (san1∆): 2.81 ± 0.14
- protein stability index (ubr1∆): 2.71 ± 0.14

Sequence: SFVGDYMHDTELNYFVG [GRR1]
- protein stability index (doa10∆): 3.1 ± 0.068
- protein stability index (pdr5∆): 3.04 ± 0.09
- protein stability index (san1∆): 3.35 ± 0.061
- protein stability index (ubr1∆): 3.22 ± 0.067

Sequence: ESFAELMTKLNSFKLFK [RPC17]
- protein stability index (doa10∆): 3.03 ± 0.1
- protein stability index (pdr5∆): 2.71 ± 0.086
- protein stability index (san1∆): 1.59 ± 0.099
- protein stability index (ubr1∆): 2.06 ± 0.081

Sequence: NTENNDPDIPMTIDLEP [IRR1]
- protein stability index (doa10∆): 3.07 ± 0.17
- protein stability index (pdr5∆): 2.94 ± 0.16
- protein stability index (san1∆): 2.48 ± 0.19
- protein stability index (ubr1∆): 3.14 ± 0.12
